From article PMC8943033, “A toolkit for recombinant production of seven human EGF family growth factors in active conformation” (Scientific Reports, 2022)

Experiments:
[1] = target: human heparin-binding epidermal growth factor, recombinant heparin-binding and EGF domains (human, UniProt Q99075 63-148); experiment: SEC; Superdex 75 10/300 GL, 25 mM Tris.HCl pH 8.0; 150 mM NaCl, flow rate 0.8 mL/min; oligomeric state read from the elution volume; conditions: both partners purified
[2] = target: human amphiregulin, recombinant heparin-binding and EGF domains (human, UniProt P15514 101-198); experiment: as above; conditions: both partners purified

| Binder | stoichiometry N [1] | stoichiometry N [2] |
| --- | --- | --- |
| human heparin-binding epidermal growth factor, recombinant heparin-binding and EGF domains (ligand, three disulfides (C1-C3, C2-C4, C5-C6); SEC suggests a dimer; N-terminal pET32a linker remnant omitted / three disulfides (C1-C3, C2-C4, C5-C6); SEC suggests a dimer; N-terminal pET32a linker remnant) DLQEADLDLLRVTLSSKPQALATPNKEEHGKRKKKGKGLGKKRDPCLRKYKDFCIHGECKYVKELRAPSCICHPGYHGERCHGLSL | 2 | – |
| human amphiregulin, recombinant heparin-binding and EGF domains (ligand, three disulfides (C1-C3, C2-C4, C5-C6); SEC suggests a dimer; N-terminal pET32a linker remnant omitted / three disulfides (C1-C3, C2-C4, C5-C6); SEC suggests a dimer; N-terminal pET32a linker remnant) SVRVEQVVKPPQNKTESENTSDKPKRKKKGGKNGKNRRNRKKKNPCNAEFQNFCIHGECKYIEHLEAVTCKCQQEYFGERCGEKSMKTHSMIDSSLSK | – | 2 |
